This experiment deals with human LGR4 (residues 25–833), called full-length LGR4 (human, UniProt Q9BXB1 25-833). In words: cryo-EM structure.

B1: RSPO2(FU), FU domain of RSPO2 (residues 37–143) (domain or fragment)
chain: NPICKGCLSCSKDNGCSRCQQKLFFFLRREGMRQYGECLHSCPSGYYGHRAPDMNRCARCRIENCDSCFSKDFCTKCKVGFYLHRGRCFDECPDGFAPLEETMECVE
In the case of B1, the stoichiometry N (in general, a count of units in the complex or per binding partner) turned out to be 1.

These data come from PMC12462478 (Nature Communications, 2025).
